Measured values: US20150065381A1
“And” between values parts separate entries of the source, which are not always exact repeats. Identical values can stand only once.

How the values were obtained:
[1] = target: aMLV envelope (from lysed pseudovirus); test: antigen capture ELISA, mAb 0.8 ug/ml, plate 2
[2] = target: BG505 envelope (gp120 monomer released from lysed pseudovirus) (HIV-1); test: antigen capture ELISA, mAb 0.8 ug/ml, plate 2
[3] = target: HIV-1 envelope of gp160 clone B-Acute-008.c11 (HIV-1); test: capture ELISA, plate 2, mAb 0.3 ug/ml
[4] = target: HIV-1 JRFL envelope (HIV-1); test: capture ELISA, plate 2, mAb 0.3 ug/ml
[5] = target: HIV-1 envelope of gp160 clone AG-010.c14 (HIV-1); test: capture ELISA, plate 2, mAb 0.3 ug/ml
[6] = target: HIV-1 envelope of gp160 clone B-Acute-010.c08 (HIV-1); test: capture ELISA, plate 2, mAb 0.3 ug/ml
[7] = target: HIV-1 JRCSF envelope (HIV-1) (UniProt P20871); test: capture ELISA, plate 2, mAb 0.3 ug/ml
[8] = target: HIV-1 envelope of gp160 clone B-Acute-010.c09 (HIV-1); test: capture ELISA, plate 2, mAb 0.3 ug/ml
[9] = target: HIV-1 envelope clone G-011.c05 (multiclade gp160 clone panel) (HIV-1); test: capture ELISA, plate 2, mAb 0.3 ug/ml
[10] = target: HIV-1 envelope of gp160 clone B-Chronic-014.c02 (HIV-1); test: capture ELISA, plate 2, mAb 0.3 ug/ml
[11] = target: HIV-1 envelope clone G-011.c02 (multiclade gp160 clone panel) (HIV-1); test: capture ELISA, plate 2, mAb 0.3 ug/ml
[12] = target: HIV-1 envelope of gp160 clone B-Acute-009-c08 (HIV-1); test: capture ELISA, plate 2, mAb 0.3 ug/ml
[13] = target: HIV-1 envelope of gp160 clone AG-010.c11 (HIV-1); test: capture ELISA, plate 2, mAb 0.3 ug/ml
[14] = target: HIV-1 16055 envelope (HIV-1); test: capture ELISA, plate 2, mAb 0.3 ug/ml
[15] = target: HIV-1 envelope of gp160 clone B-Acute-008.c11 (HIV-1); test: capture ELISA, plate 1, mAb 0.8 ug/ml
[16] = target: HIV-1 JRFL envelope (HIV-1); test: capture ELISA, plate 1, mAb 0.8 ug/ml
[17] = target: HIV-1 envelope of gp160 clone B-Acute-010.c08 (HIV-1); test: capture ELISA, plate 1, mAb 0.8 ug/ml
[18] = target: HIV-1 envelope of gp160 clone B-Acute-010.c09 (HIV-1); test: capture ELISA, plate 1, mAb 0.8 ug/ml
[19] = target: HIV-1 envelope clone G-011.c05 (multiclade gp160 clone panel) (HIV-1); test: capture ELISA, plate 1, mAb 0.8 ug/ml
[20] = target: HIV-1 envelope of gp160 clone B-Chronic-014.c02 (HIV-1); test: capture ELISA, plate 1, mAb 0.8 ug/ml
[21] = target: HIV-1 envelope clone G-011.c02 (multiclade gp160 clone panel) (HIV-1); test: capture ELISA, plate 1, mAb 0.8 ug/ml
[22] = target: HIV-1 envelope of gp160 clone AG-010.c11 (HIV-1); test: capture ELISA, plate 1, mAb 0.8 ug/ml
[23] = target: HIV-1 16055 envelope (HIV-1); test: capture ELISA, plate 1, mAb 0.8 ug/ml
[24] = target: HIV-1 envelope of gp160 clone B-Acute-008.c11 (HIV-1); test: capture ELISA, plate 1, mAb 0.3 ug/ml
[25] = target: HIV-1 JRFL envelope (HIV-1); test: capture ELISA, plate 1, mAb 0.3 ug/ml
[26] = target: HIV-1 envelope of gp160 clone B-Acute-010.c08 (HIV-1); test: capture ELISA, plate 1, mAb 0.3 ug/ml
[27] = target: HIV-1 JRCSF envelope (HIV-1) (UniProt P20871); test: capture ELISA, plate 1, mAb 0.3 ug/ml
[28] = target: HIV-1 envelope of gp160 clone B-Acute-010.c09 (HIV-1); test: capture ELISA, plate 1, mAb 0.3 ug/ml
[29] = target: HIV-1 envelope of gp160 clone B-Chronic-014.c02 (HIV-1); test: capture ELISA, plate 1, mAb 0.3 ug/ml
[30] = target: HIV-1 envelope clone G-011.c02 (multiclade gp160 clone panel) (HIV-1); test: capture ELISA, plate 1, mAb 0.3 ug/ml
[31] = target: HIV-1 16055 envelope (HIV-1); test: capture ELISA, plate 1, mAb 0.3 ug/ml
[32] = target: HIV-1 envelope clone F1-002.c11 (multiclade gp160 clone panel) (HIV-1); test: capture ELISA, plate 2, mAb 0.3 ug/ml
[33] = target: HIV-1 envelope clone F1-002.c16 (multiclade gp160 clone panel) (HIV-1); test: capture ELISA, plate 2, mAb 0.3 ug/ml
[34] = target: HIV-1 envelope clone BF-002.c08 (multiclade gp160 clone panel) (HIV-1); test: capture ELISA, plate 2, mAb 0.3 ug/ml
[35] = target: HIV-1 envelope clone BF-002.c05 (multiclade gp160 clone panel) (HIV-1); test: capture ELISA, plate 2, mAb 0.3 ug/ml
[36] = target: HIV-1 envelope clone BF-002.c08 (multiclade gp160 clone panel) (HIV-1); test: capture ELISA, plate 1, mAb 0.8 ug/ml
[37] = target: HIV-1 envelope clone BF-002.c05 (multiclade gp160 clone panel) (HIV-1); test: capture ELISA, plate 1, mAb 0.8 ug/ml
[38] = target: HIV-1 envelope clone BF-002.c08 (multiclade gp160 clone panel) (HIV-1); test: capture ELISA, plate 1, mAb 0.3 ug/ml

Row | Substance | ELISA OD [1] | ELISA OD [2] [OD] | ELISA OD [3] [OD] | ELISA OD [5] [OD] | ELISA OD [6] [OD] | ELISA OD [7] | ELISA OD [8] [OD] | ELISA OD [9] [OD] | ELISA OD [10] [OD] | ELISA OD [11] [OD] | ELISA OD [12] [OD] | ELISA OD [13] [OD] | ELISA OD [15] [OD] | ELISA OD [17] [OD] | ELISA OD [18] [OD] | ELISA OD [19] [OD] | ELISA OD [20] [OD] | ELISA OD [21] [OD] | ELISA OD [22] [OD] | ELISA OD [24] [OD] | further results
1 | PG9 (antibody) | 0.056 OD and 0.051 OD | 0.261 | 0.097 | 0.274 | 0.079 | 0.113 OD and 0.131 OD | 0.074 | 0.076 | 0.479 | 0.052 | 0.057 | 0.257 | 0.168 | 0.161 | 0.08 | 0.172 | 1.22 | 0.064 | 0.506 | 0.114 | ELISA OD [4]: 0.06 OD and 0.056 OD; ELISA OD [14]: 0.118 OD and 0.146 OD; ELISA OD [16]: 0.064 OD and 0.096 OD; ELISA OD [23]: 0.313 OD and 0.242 OD; ELISA OD [25]: 0.066 OD and 0.072 OD; ELISA OD [26]: 0.089 OD; ELISA OD [27]: 0.158 OD and 0.171 OD; ELISA OD [28]: 0.073 OD; ELISA OD [29]: 0.564 OD; ELISA OD [30]: 0.064 OD; ELISA OD [31]: 0.184 OD and 0.188 OD
2 | PG16 (antibody) | 0.072 OD and 0.064 OD | 0.165 | 0.141 | 0.337 | 0.11 | 0.133 OD and 0.167 OD | 0.071 | 0.095 | 0.222 | 0.09 | 0.077 | 0.167 | 0.164 | 0.132 | 0.073 | 0.099 | 0.365 | 0.057 | 0.177 | 0.163 | ELISA OD [32]: 0.098 OD; ELISA OD [33]: 0.224 OD; ELISA OD [34]: 0.097 OD; ELISA OD [35]: 0.361 OD; ELISA OD [36]: 0.134 OD; ELISA OD [37]: 0.518 OD; ELISA OD [26]: 0.083 OD; ELISA OD [27]: 0.122 OD and 0.186 OD; ELISA OD [28]: 0.062 OD; ELISA OD [29]: 0.288 OD; ELISA OD [30]: 0.063 OD; ELISA OD [38]: 0.109 OD
3 | PGT151 (antibody) | 0.054 OD and 0.078 OD | 0.054 | 0.234 | 0.121 | 0.149 | 0.069 OD and 0.065 OD | 0.072 | 0.057 | 0.216 | 0.116 | 0.063 | 0.075 | 0.174 | 0.124 | 0.055 | 0.071 | 0.148 | 0.061 | 0.057 | 0.138 | ELISA OD [4]: 0.073 OD and 0.088 OD; ELISA OD [32]: 0.058 OD; ELISA OD [33]: 0.107 OD; ELISA OD [34]: 0.09 OD; ELISA OD [14]: 0.054 OD and 0.096 OD; ELISA OD [35]: 0.1 OD; ELISA OD [16]: 0.066 OD and 0.05 OD; ELISA OD [36]: 0.05 OD; ELISA OD [23]: 0.056 OD and 0.061 OD; ELISA OD [37]: 0.117 OD; ELISA OD [25]: 0.074 OD and 0.055 OD; ELISA OD [26]: 0.104 OD; ELISA OD [28]: 0.052 OD; ELISA OD [29]: 0.195 OD; ELISA OD [30]: 0.053 OD; ELISA OD [38]: 0.055 OD; ELISA OD [31]: 0.053 OD and 0.058 OD
4 | PGV04 (antibody) | 0.085 OD | 0.745 | 0.129 | 0.096 | 0.303 | 0.525 OD and 0.588 OD | 0.424 | 0.123 | 1.52 | 0.189 | 0.075 | 0.103 | 0.053 | 0.631 | 0.902 | 0.136 | 2.9 | 0.282 | 0.101 | 0.055 | ELISA OD [32]: 0.064 OD; ELISA OD [33]: 0.142 OD; ELISA OD [34]: 0.758 OD; ELISA OD [35]: 1 OD; ELISA OD [36]: 1.27 OD; ELISA OD [37]: 1.91 OD; ELISA OD [26]: 0.287 OD; ELISA OD [27]: 0.481 OD and 0.603 OD; ELISA OD [28]: 0.432 OD; ELISA OD [30]: 0.167 OD; ELISA OD [38]: 0.663 OD
